The target in test [1] is T1, human LTBP1-proTGFβ1 complex (human, UniProt Q14766 347-1721; P01137 30-390).
T1 construct: also called hLTBP1-proTGFβ1
The test is described as follows: SPR (Biacore). For orientation: SPR reads the build-up and loss of mass on a sensor chip optically.

Test [2] has as its target T2, human LTBP3-proTGFβ1 complex (human, UniProt Q9NS15 44-1303; P01137 30-390, limits assumed).
T2 construct: also called hLTBP3-proTGFβ1
The test is described as follows: SPR (Biacore).

For test [3], the target named is T1, human LTBP1-proTGFβ1 complex. In words: SPR (Biacore), monovalent Fab.
In test [4] the target is T2, human LTBP3-proTGFβ1 complex. In words: SPR (Biacore), monovalent Fab.
Test [5] addresses T3, human GARP-proTGFβ1 complex (human, UniProt Q14392 20-627; P01137 30-390, limits assumed).
T3 construct: also called hGARP-proTGFβ1
In words: SPR (Biacore), monovalent Fab.

The target in test [6] is T4, human LRRC33-proTGFβ1 complex (human, UniProt Q86YC3 19-650; P01137 30-390, limits assumed).
T4 construct: also called hLRRC33-proTGFβ1
T4 sequence (Q86YC3 19-650 limits assumed, chain 1 of 2): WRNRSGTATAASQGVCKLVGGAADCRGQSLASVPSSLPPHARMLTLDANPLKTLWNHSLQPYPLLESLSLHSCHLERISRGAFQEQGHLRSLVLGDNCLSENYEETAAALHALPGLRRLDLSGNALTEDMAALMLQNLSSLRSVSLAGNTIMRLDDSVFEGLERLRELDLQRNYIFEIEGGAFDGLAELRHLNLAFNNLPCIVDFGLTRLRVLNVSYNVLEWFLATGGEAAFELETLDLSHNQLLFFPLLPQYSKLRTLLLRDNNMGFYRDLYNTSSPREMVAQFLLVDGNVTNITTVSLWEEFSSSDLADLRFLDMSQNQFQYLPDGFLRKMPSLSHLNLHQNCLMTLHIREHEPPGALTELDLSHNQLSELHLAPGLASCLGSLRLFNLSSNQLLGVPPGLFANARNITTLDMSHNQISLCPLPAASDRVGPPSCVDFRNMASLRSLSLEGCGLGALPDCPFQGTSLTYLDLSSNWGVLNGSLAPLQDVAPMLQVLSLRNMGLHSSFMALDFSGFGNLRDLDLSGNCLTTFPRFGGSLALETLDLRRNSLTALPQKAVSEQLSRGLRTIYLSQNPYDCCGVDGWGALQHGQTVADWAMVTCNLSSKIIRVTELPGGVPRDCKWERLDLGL
T4 sequence (P01137 30-390 limits assumed, chain 2 of 2): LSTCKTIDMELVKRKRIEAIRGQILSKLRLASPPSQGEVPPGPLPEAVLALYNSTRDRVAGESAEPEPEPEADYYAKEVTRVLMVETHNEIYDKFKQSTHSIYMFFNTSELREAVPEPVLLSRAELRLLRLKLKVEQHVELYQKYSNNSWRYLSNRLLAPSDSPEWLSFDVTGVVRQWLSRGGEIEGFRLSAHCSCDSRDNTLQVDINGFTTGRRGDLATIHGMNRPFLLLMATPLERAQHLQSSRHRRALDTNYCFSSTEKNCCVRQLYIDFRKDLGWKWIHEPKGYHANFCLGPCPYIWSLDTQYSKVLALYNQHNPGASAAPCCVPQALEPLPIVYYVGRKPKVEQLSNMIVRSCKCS
In words: SPR (Biacore), monovalent Fab.

For test [7], the target named is T1, human LTBP1-proTGFβ1 complex. The test is described as follows: monovalent Fab affinity (Biacore); repeats the 12th table.
Test [8] addresses T2, human LTBP3-proTGFβ1 complex. The description is as above.
Test [9] addresses T3, human GARP-proTGFβ1 complex. Described as above.
Test [10] deals with T4, human LRRC33-proTGFβ1 complex. The description is as above.
For test [11], the target named is T1, human LTBP1-proTGFβ1 complex. The test is described as follows: binding profile; method not stated.
For test [12], the target named is T2, human LTBP3-proTGFβ1 complex. In words: binding profile; method not stated.

From patent US20240301073A1 (SCHOLAR ROCK, published 2024) come the findings set out here.

T3 sequence (Q14392 20-627 limits assumed, chain 1 of 2): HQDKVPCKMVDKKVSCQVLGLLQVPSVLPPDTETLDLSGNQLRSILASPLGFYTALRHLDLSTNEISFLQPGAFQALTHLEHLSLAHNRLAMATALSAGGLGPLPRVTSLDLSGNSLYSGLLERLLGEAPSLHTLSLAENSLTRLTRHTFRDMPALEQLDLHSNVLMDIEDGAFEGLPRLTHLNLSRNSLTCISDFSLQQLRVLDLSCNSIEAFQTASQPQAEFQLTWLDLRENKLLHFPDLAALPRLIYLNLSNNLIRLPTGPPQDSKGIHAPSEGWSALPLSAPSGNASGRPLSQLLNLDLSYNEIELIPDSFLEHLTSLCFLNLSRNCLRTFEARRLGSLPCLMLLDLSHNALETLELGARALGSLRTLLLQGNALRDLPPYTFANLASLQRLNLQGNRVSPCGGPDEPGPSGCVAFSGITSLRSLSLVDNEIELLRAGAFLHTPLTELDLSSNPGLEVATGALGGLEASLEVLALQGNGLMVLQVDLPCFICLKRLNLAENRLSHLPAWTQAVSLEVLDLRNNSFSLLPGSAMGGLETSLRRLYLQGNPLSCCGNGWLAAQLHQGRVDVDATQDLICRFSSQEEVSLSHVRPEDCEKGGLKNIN
T3 sequence (P01137 30-390 limits assumed, chain 2 of 2): as the sequence (P01137 30-390 limits assumed, chain 2 of 2) above
T2 sequence (Q9NS15 44-1303 limits assumed, chain 1 of 2): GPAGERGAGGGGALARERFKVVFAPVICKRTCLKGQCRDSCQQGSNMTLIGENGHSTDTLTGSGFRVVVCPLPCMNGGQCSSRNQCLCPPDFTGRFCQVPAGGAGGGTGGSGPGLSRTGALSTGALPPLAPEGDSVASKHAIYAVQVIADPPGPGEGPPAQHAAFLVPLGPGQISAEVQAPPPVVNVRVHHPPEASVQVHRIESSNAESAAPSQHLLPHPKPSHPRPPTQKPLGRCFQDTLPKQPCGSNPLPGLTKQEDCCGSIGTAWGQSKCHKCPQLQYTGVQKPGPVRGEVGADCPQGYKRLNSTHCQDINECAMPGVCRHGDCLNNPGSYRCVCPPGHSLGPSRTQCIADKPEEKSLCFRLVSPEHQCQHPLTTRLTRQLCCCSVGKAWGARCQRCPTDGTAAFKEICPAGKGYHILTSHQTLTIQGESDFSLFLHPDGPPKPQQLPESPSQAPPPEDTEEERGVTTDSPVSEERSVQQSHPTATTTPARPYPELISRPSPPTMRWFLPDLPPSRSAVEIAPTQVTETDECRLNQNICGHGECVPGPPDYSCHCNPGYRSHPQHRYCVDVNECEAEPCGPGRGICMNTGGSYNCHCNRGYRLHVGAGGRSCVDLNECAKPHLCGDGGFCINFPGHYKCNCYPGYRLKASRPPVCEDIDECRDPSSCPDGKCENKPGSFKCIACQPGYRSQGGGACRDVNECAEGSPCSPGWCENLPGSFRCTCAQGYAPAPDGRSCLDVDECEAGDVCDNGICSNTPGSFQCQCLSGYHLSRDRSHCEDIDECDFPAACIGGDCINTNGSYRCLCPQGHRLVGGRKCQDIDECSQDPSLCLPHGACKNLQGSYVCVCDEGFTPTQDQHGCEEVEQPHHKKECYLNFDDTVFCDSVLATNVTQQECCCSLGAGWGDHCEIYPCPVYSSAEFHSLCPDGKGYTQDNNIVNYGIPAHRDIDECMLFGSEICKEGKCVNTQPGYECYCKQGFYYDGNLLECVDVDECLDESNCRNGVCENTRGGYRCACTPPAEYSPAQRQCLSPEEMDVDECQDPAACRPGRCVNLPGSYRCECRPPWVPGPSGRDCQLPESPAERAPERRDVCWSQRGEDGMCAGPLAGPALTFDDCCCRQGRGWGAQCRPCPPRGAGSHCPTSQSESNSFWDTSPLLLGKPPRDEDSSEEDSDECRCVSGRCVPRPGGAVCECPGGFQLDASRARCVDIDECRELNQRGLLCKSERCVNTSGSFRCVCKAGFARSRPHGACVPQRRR
T2 sequence (P01137 30-390 limits assumed, chain 2 of 2): as the sequence (P01137 30-390 limits assumed, chain 2 of 2) above
T1 sequence (Q14766 347-1721 limits assumed, chain 1 of 2): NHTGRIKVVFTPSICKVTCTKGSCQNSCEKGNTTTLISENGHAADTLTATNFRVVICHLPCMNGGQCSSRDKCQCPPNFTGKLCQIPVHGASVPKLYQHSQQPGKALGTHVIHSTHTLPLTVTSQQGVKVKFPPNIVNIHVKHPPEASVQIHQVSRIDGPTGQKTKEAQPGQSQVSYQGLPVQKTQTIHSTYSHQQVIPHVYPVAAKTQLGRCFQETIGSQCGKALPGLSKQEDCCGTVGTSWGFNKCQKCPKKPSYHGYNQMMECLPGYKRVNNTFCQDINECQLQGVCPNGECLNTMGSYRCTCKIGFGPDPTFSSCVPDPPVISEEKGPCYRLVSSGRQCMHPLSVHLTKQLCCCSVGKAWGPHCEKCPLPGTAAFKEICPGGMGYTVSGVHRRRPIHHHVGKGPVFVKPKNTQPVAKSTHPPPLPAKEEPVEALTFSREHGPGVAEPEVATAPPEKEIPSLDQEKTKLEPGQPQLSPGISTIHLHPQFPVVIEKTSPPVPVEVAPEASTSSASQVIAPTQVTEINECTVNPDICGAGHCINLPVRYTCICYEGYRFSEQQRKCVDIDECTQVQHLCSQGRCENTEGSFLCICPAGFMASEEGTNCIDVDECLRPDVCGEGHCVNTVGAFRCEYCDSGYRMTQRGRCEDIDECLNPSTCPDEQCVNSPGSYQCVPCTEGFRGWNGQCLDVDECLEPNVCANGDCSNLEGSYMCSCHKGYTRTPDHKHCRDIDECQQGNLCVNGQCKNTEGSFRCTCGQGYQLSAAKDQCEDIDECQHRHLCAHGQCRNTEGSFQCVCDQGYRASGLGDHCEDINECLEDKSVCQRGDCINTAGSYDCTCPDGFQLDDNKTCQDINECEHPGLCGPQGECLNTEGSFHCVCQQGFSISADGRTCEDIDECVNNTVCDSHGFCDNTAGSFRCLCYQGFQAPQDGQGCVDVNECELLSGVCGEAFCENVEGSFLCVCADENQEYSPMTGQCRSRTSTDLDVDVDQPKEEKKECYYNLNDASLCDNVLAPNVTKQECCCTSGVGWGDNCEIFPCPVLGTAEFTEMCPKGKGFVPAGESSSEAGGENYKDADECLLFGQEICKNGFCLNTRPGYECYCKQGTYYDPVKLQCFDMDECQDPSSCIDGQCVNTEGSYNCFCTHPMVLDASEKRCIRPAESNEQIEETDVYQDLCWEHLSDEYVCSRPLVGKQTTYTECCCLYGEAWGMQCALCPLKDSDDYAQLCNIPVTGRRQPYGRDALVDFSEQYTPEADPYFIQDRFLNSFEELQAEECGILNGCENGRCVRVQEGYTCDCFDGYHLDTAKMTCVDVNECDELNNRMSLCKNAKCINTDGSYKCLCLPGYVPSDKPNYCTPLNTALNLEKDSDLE
T1 sequence (P01137 30-390 limits assumed, chain 2 of 2): as the sequence (P01137 30-390 limits assumed, chain 2 of 2) above

B1: Ab42 human Fab (Fab, V domains shown)
VH: QVQLVESGGGVVQPGRSLRLSCAASGFTFRSYVMHWVRQAPGKGLEWVAVISHEGSLKYYADSVKGRFTISRDNSKNTLYLQMNSLRAEDTAVYYCARPRIAARRGGFGYWGQGTLVTVSS
VL: NFMLTQPHSVSESPGKTVTISCTRSSGNIDNNYVQWYQQRPGSSPTTVIYEDNQRPSGVPDRFSGSIDSSSNSASLTISGLKTEDEADYYCQSYDYDTQGVVFGGGTKLTVL
notes: Fab of Ab42; also called Ab42 Fab; Ab42 (monovalent, Fab)
For B1, the “fold binding selectivity compared to GARP or LRRC33 complexes” value in test [1] and in test [2] was about 100 fold in each case. For the same molecule, the Kd in [3] amounted to 0.38 nM; in [4], 0.57 nM; in test [5], 145 nM; in test [6], 134 nM; in [7] it was 0.38 nM; in test [8], 0.57 nM. The values for the Kd in test [9] and in test [10] were 145 nM and 134 nM, respectively. Besides, the koff in test [3] is 0.000111 s⁻¹; in test [4], 0.000109 s⁻¹; in [5], 0.006 s⁻¹; in test [6], 0.00271 s⁻¹. In addition, the kon in test [3] worked out at 293000 M⁻¹ s⁻¹; in test [4], 191000 M⁻¹ s⁻¹; in [5], 41500 M⁻¹ s⁻¹; in test [6] it was 20200 M⁻¹ s⁻¹.

B2: Ab42 (antibody, V domains shown)
VH: QVQLVESGGGVVQPGRSLRLSCAASGFTFRSYVMHWVRQAPGKGLEWVAVISHEGSLKYYADSVKGRFTISRDNSKNTLYLQMNSLRAEDTAVYYCARPRIAARRGGFGYWGQGTLVTVSS
VL: NFMLTQPHSVSESPGKTVTISCTRSSGNIDNNYVQWYQQRPGSSPTTVIYEDNQRPSGVPDRFSGSIDSSSNSASLTISGLKTEDEADYYCQSYDYDTQGVVFGGGTKLTVL
notes: also called SR-AB42; SR-Ab42
Regarding B2, the “fold specificity over GARP and LRRC33 complexes” value in [11] and in test [12] was over 100 fold in each case.

The Kd is the equilibrium constant for the complex coming apart. Lower therefore signals tighter binding. The koff is the rate constant with which the complex falls apart. One may read the kon as the second-order rate constant of association.
